In article PMC4157451:

Biological target: T1, PvuRts1I, Q52612
T1 chain: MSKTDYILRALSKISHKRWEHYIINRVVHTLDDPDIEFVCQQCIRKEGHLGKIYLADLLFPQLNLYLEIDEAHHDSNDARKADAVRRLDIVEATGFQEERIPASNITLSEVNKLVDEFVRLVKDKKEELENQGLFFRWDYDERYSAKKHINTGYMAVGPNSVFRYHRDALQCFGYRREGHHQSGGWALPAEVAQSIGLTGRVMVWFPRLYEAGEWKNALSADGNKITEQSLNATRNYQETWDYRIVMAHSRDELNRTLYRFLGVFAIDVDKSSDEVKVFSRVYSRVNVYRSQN
Experiment: SEC; size-exclusion chromatography of purified PvuRts1I; single peak, apparent molecular weight 89 kDa against a theoretical 34 kDa
Settings: remark: other sources report otherwise

B1: PvuRts1I, Q52612 1-293 (enzyme)
chain: MSKTDYILRALSKISHKRWEHYIINRVVHTLDDPDIEFVCQQCIRKEGHLGKIYLADLLFPQLNLYLEIDEAHHDSNDARKADAVRRLDIVEATGFQEERIPASNITLSEVNKLVDEFVRLVKDKKEELENQGLFFRWDYDERYSAKKHINTGYMAVGPNSVFRYHRDALQCFGYRREGHHQSGGWALPAEVAQSIGLTGRVMVWFPRLYEAGEWKNALSADGNKITEQSLNATRNYQETWDYRIVMAHSRDELNRTLYRFLGVFAIDVDKSSDEVKVFSRVYSRVNVYRSQN
Q: With B1 as the binder, how does the stoichiometry N read?
A: 2
